In patent US20190309059A1 (SHANGHAI PHARMAEXPLORER, published 2019):

What was measured:
[1] = target: his-labeled human IL-13 (immunogen A) (human) (UniProt P35225); test: cell-based or functional assay
[2] = target: cynomolgus IL-13 (purchased from sino biological) (cynomolgus) (UniProt Q0PW92); test: ELISA, cynomolgus IL-13; antibody at 0.11 nM
[3] = target: cynomolgus IL-13 (purchased from sino biological) (cynomolgus) (UniProt Q0PW92); test: ELISA, cynomolgus IL-13; antibody at 0.53 nM
[4] = target: cynomolgus IL-13 (purchased from sino biological) (cynomolgus) (UniProt Q0PW92); test: ELISA, cynomolgus IL-13; antibody at 2.67 nM
[5] = target: cynomolgus IL-13 (purchased from sino biological) (cynomolgus) (UniProt Q0PW92); test: ELISA, cynomolgus IL-13; antibody at 0.004 nM
[6] = target: cynomolgus IL-13 (purchased from sino biological) (cynomolgus) (UniProt Q0PW92); test: ELISA, cynomolgus IL-13; antibody at 0.021 nM
[7] = target: his-labeled human IL-13 (immunogen A) (human) (UniProt P35225); test: ELISA, biotin-immunogen A; antibody at 0.11 nM
[8] = target: his-labeled human IL-13 (immunogen A) (human) (UniProt P35225); test: ELISA, biotin-immunogen A; antibody at 0.000 nM
[9] = target: his-labeled human IL-13 (immunogen A) (human) (UniProt P35225); test: FACS blocking, biotin-IL-13 on IL-13Ra2 HEK293 cells; antibody at 0.01 nM
[10] = target: his-labeled human IL-13 (immunogen A) (human) (UniProt P35225); test: FACS blocking, biotin-IL-13 on IL-13Ra2 HEK293 cells; antibody at 0.05 nM
[11] = target: his-labeled human IL-13 (immunogen A) (human) (UniProt P35225); test: FACS blocking, biotin-IL-13 on IL-13Ra2 HEK293 cells; antibody at 0.27 nM
[12] = target: his-labeled human IL-13 (immunogen A) (human) (UniProt P35225); test: FACS blocking, biotin-IL-13 on IL-13Ra2 HEK293 cells; antibody at 1.33 nM
[13] = target: his-labeled human IL-13 (immunogen A) (human) (UniProt P35225); test: FACS blocking, biotin-IL-13 on IL-13Ra2 HEK293 cells; antibody at 6.67 nM
[14] = target: his-labeled human IL-13 (immunogen A) (human) (UniProt P35225); test: FACS blocking, biotin-IL-13 on IL-13Ra2 HEK293 cells; antibody at 0.002 nM
[15] = target: his-labeled human IL-13 (immunogen A) (human) (UniProt P35225); test: FACS blocking, biotin-IL-13 on IL-13Ra2 HEK293 cells; antibody at 33.33 nM
[16] = target: his-labeled human IL-13 (immunogen A) (human) (UniProt P35225); test: FACS blocking, biotin-IL-13 on IL-13Ra2 HEK293 cells; antibody at 166.67 nM
[17] = target: his-labeled human IL-13 (immunogen A) (human) (UniProt P35225); test: FACS blocking, biotin-IL-13 on IL-13Ra1/IL-4Ra HEK293 cells; antibody at 0.01 nM
[18] = target: his-labeled human IL-13 (immunogen A) (human) (UniProt P35225); test: FACS blocking, biotin-IL-13 on IL-13Ra1/IL-4Ra HEK293 cells; antibody at 0.05 nM
[19] = target: his-labeled human IL-13 (immunogen A) (human) (UniProt P35225); test: FACS blocking, biotin-IL-13 on IL-13Ra1/IL-4Ra HEK293 cells; antibody at 0.27 nM
[20] = target: his-labeled human IL-13 (immunogen A) (human) (UniProt P35225); test: FACS blocking, biotin-IL-13 on IL-13Ra1/IL-4Ra HEK293 cells; antibody at 1.33 nM
[21] = target: his-labeled human IL-13 (immunogen A) (human) (UniProt P35225); test: FACS blocking, biotin-IL-13 on IL-13Ra1/IL-4Ra HEK293 cells; antibody at 6.67 nM
[22] = target: his-labeled human IL-13 (immunogen A) (human) (UniProt P35225); test: FACS blocking, biotin-IL-13 on IL-13Ra1/IL-4Ra HEK293 cells; antibody at 0.002 nM
[23] = target: his-labeled human IL-13 (immunogen A) (human) (UniProt P35225); test: FACS blocking, biotin-IL-13 on IL-13Ra1/IL-4Ra HEK293 cells; antibody at 33.33 nM
[24] = target: his-labeled human IL-13 (immunogen A) (human) (UniProt P35225); test: FACS blocking, biotin-IL-13 on IL-13Ra1/IL-4Ra HEK293 cells; antibody at 166.67 nM
[25] = target: his-labeled human IL-13 (immunogen A) (human) (UniProt P35225); test: FACS blocking assay: antibody titrated with biotin-labeled immunogen A (30 ng/mL); blocked partner IL-13Ra1/IL-4Ra on HEK293 clone 4C1; Alexa 488 streptavidin

Chain of cynomolgus IL-13 (purchased from sino biological) (cynomolgus) (Q0PW92 entry or part of it): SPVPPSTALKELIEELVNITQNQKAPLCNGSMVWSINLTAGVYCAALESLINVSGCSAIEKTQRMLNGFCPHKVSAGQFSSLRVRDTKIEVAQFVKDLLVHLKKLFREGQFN

| Binder | TARC (pg/mL), A549 cells + IL-13 5 ng/mL + TNFα; antibody at 0.001 nM [1] [pg/mL] | TARC (pg/mL), A549 cells + IL-13 5 ng/mL + TNFα; antibody at 0.004 nM [1] [pg/mL] | TARC (pg/mL), A549 cells + IL-13 5 ng/mL + TNFα; antibody at 0.021 nM [1] [pg/mL] | TARC (pg/mL), A549 cells + IL-13 5 ng/mL + TNFα; antibody at 0.11 nM [1] [pg/mL] | TARC (pg/mL), A549 cells + IL-13 5 ng/mL + TNFα; antibody at 0.5 nM [1] [pg/mL] | TARC (pg/mL), A549 cells + IL-13 5 ng/mL + TNFα; antibody at 2.7 nM [1] [pg/mL] | TARC (pg/mL), A549 cells + IL-13 5 ng/mL + TNFα; antibody at 13.3 nM [1] [pg/mL] | TARC (pg/mL), A549 cells + IL-13 5 ng/mL + TNFα; antibody at 66.7 nM [1] [pg/mL] | OD450 nm [2] | OD450 nm [3] | OD450 nm [4] | OD450 nm [5] | OD450 nm [6] | OD450 nm [7] | OD450 nm [8] | mean fluorescence intensity [9] | mean fluorescence intensity [10] | mean fluorescence intensity [11] | mean fluorescence intensity [12] | mean fluorescence intensity [13] | further results |
| --- | --- | --- | --- | --- | --- | --- | --- | --- | --- | --- | --- | --- | --- | --- | --- | --- | --- | --- | --- | --- | --- |
| 29D9H8 (lead antibody, mouse hybridoma) (antibody, V domains shown, Mouse monoclonal antibody purified from hybridoma supernatant on Protein G) VH: QVQLQQSGAELVRPGASVTLSCKASGYTFTDYEMHWVKQTPVHGLEWIGGIDPETGGTASNQKFKGKAILTADKSSSTAYMELRSLTSEDSAVYYCTSGDYFGGGPFAYWGQGTLVTVSA VL: DIKMTQSPSSMYASLGERVTITCKASQDINSYLSWFQQKPGKSPKTLIYRANRLVDGVPSRFSGSGSGQDYSLTISSLDYEDMGIYYCLQYDEFPYTFGGGTKLEIK | 1910 | 1720 | 1600 | 1300 | 653 | 146 | 53 | 42 | 1.24 | 2.05 | 2.36 | 0.19 | 0.56 | 0.85 | 0.06 | 74.6 | 67.6 | 45.4 | 32.3 | 23.6 | mean fluorescence intensity [14]: 76.3; mean fluorescence intensity [15]: 21.5; mean fluorescence intensity [16]: 20.5; mean fluorescence intensity [17]: 74.2; mean fluorescence intensity [18]: 68.5; mean fluorescence intensity [19]: 45.3; mean fluorescence intensity [20]: 24; mean fluorescence intensity [21]: 16.6; mean fluorescence intensity [22]: 75.3; mean fluorescence intensity [23]: 15.9; mean fluorescence intensity [24]: 14.8; IC50 (read off the curve) [25]: 0.3 nM |
| 28A2E11 (lead antibody, mouse hybridoma) (antibody, V domains shown, Mouse monoclonal antibody purified from hybridoma supernatant on Protein G) VH: EVQLQQSGAELVKPGASVKLSCTASGFNIKDYYMHWVKQRTEQGLEWIGRIDPEDGETKYAPKFHDKATLTADTSSNTAYLQFSSLASEDTAVYYCTRYDYYGPFAYWGQGTLVTVSA VL: QAVVTQESVLTTSPGETVTLTCRSSTGAVTTSNYANWVQEKPDHLFTGLIGGTNNRAPGVPARFSGSLIGDKAALTITGAQTEDEAIYFCALWYINHFIFGSGTKVTVL | 1850 | 1700 | 1590 | 1360 | 601 | 118 | 51 | 56 | 0.35 | 0.83 | 1.35 | 0.08 | 0.14 | 0.74 | 0.05 | 79.7 | 76.9 | 72.1 | 60.1 | 55.9 | mean fluorescence intensity [14]: 76.5; mean fluorescence intensity [15]: 56.6; mean fluorescence intensity [16]: 53.3; mean fluorescence intensity [17]: 76.2; mean fluorescence intensity [18]: 71.5; mean fluorescence intensity [19]: 64.2; mean fluorescence intensity [20]: 39.6; mean fluorescence intensity [21]: 28.8; mean fluorescence intensity [22]: 74.7; mean fluorescence intensity [23]: 27.2; mean fluorescence intensity [24]: 24.6; IC50 (read off the curve) [25]: 0.7 nM |
